Data: article PMC4222252

Assays:
[1] = target: His6-tagged HIV-1 integrase E10R/E13R (HIV-1)
[2] = target: His6-tagged HIV-1 integrase E10R/E13R/K42E (HIV-1)
[3] = target: His6-tagged HIV-1 integrase E10R/E13R (HIV-1); experiment: pull-down
[4] = target: His6-tagged HIV-1 integrase E10R/E13R/K42E (HIV-1); experiment: pull-down
[5] = target: His6-tagged HIV-1 integrase K42E (HIV-1); experiment: pull-down

Row | Substance | concerted integration activity in vitro, percent of WT IN with WT LEDGF/p75 [1] | concerted integration activity in vitro, percent of WT IN with WT LEDGF/p75 [2] | percent of the WT LEDGF/p75 bound by WT IN [3] | percent of the WT LEDGF/p75 bound by WT IN [4] | percent of the WT LEDGF/p75 bound by WT IN [5]
1 | lens epithelium-derived growth factor (LEDGF)/p75, wild type (from UniProt O75475 1-530) (natural protein) | 53% | 18% |  |  | 
2 | LEDGF/p75 K401E/K402E/R405E (from UniProt O75475 1-530) (natural protein) | 55% | 78% | 11% | 15% | 42%
